Biological target: c-Kit (CD117) on human undifferentiated blood cells (UT-7, M07e, cord blood-derived CD34 positive cells) (human, UniProt P10721 26-976)
Assay: cell-based or functional assay

Sequence of c-Kit (CD117) on human undifferentiated blood cells (UT-7, M07e, cord blood-derived CD34 positive cells) (P10721 26-976): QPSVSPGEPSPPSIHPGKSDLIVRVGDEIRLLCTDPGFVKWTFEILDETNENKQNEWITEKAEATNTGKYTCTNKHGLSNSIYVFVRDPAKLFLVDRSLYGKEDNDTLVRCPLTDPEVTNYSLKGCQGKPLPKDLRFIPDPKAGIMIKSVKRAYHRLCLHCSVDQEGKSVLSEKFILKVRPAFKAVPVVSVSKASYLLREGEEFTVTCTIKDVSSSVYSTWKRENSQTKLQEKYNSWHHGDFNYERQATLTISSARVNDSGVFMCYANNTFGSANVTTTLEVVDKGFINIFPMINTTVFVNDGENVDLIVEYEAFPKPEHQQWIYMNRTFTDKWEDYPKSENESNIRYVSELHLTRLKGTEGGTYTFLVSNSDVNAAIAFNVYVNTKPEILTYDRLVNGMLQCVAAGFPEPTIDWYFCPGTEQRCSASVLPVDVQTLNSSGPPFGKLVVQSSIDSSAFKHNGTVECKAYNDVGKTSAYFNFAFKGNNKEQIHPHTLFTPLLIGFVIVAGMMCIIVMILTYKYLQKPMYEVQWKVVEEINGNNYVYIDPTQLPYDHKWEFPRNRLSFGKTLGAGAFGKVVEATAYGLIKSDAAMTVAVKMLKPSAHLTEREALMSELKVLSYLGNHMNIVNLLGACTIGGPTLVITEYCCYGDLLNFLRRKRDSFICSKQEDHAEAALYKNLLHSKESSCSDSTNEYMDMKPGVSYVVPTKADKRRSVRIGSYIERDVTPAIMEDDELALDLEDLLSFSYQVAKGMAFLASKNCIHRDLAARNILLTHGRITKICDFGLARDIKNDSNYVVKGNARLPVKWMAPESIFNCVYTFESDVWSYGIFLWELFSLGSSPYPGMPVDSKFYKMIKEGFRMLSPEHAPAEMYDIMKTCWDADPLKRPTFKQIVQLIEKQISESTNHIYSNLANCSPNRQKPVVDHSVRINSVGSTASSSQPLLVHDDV

B1: polypeptide (CARex-mSCF), being CAR extracellular region linked with mouse SCF (other)
chain: LSITTPEEMIEKAKGETAYLPCKFTLSPEDQGPLDIEWLISPADNQKVDQVIILYSGDKIYDDYYPDLKGRVHFTSNDLKSGDASINVTNLQLSDIGTYQCKVKKAPGVANKKIHLVVLVKPSGARCYVDGSEEIGSDFKIKCEPKEGSLPLQYEWQKLSDSQKMPTSWLAEMTSSVISVKNASSEYSGTYSCTVRNRVGSDQCLLRLNVVPPSNKAHHHHHHSASASAKEICGNPVTDNVKDITKLVANLPNDYMITLNYVAGMDVLPSHCWLRDMVIQLSLSLTTLLDKFSNISEGLSNYSIIDKLGKIVDDLVLCMEENAPKNIKESPKRPETRSFTPEEFFSIFNRSIDAFKDFMVASDTSDCVLSSTLGPEKDSRVSVTKPFMLPPVA
B1 was tested, and the “GFP positive cell ratio, M07e cells, Ax1CAgfp at MOI 100 (adenovirus alone 0.5%)” value was 82%.

— patent US20030092068A1 (ASAHI KASEI, published 2003)
